± gives the uncertainty stated by the source.
B1: library; the commonest letter at each place (parent)
chain: MKPVTLYDVAEYAGVSYQTVSRVVNQASHVSAKTREKVEAAMAELNYIPNRVAQQLAGKQSLLIGVATSSLALHAPSQIVAAIKSRADQLGASVVVSMVERSGVEACKAAVHNLLAQRVSGLIINYPLDDQDAIAVEAACTNVPALFLDVSDQTPINSIIFSHEDGTRLGVEHLVALGHQQIALLAGPLSSVSARLRLAGWHKYLTRNQIQPIAEREGDWSAMSGFQQTMQMLNEGIVPTAMLVANDQMALGAMRAITESGLRVGADISVVGYDDTEDSSCYIPPLTTIKQDFRLLGQTSVDRLLQLSQGQAVKGNQLLPVSLVKRKTTLAPNTQTASPRALADSLMQLARQVSRLESGQ

Columns and labels:
Conditions in all cases: with IPTG
IPTG [1] = variants of: B1
Experimental: (§1)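 LacI variants on the pVER plasmid regulate eYFP behind lacO in E. coli MG1655Δlac, grown in rich M9 at 37 °C with a 2-fold IPTG dilution series. After two 160-min growth steps, YFP is read by flow cytometry and calibrated to MEF. Bayesian MCMC fits of the Hill equation give G0, G∞, EC50 and n (posterior mean ± SD).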

IPTG [2] = variants of: B1; assay: Hill coefficient n (dimensionless); higher = steeper dose response
Experimental: as §1

IPTG [3] = variants of: B1; assay: basal output G0 (YFP, no IPTG) (log10 MEF); higher = higher reporter expression without inducer
Experimental: as §1

IPTG [4] = variants of: B1; assay: saturating output G-infinity (YFP) (log10 MEF); higher = higher reporter expression at saturating IPTG
Experimental: as §1

Variant | EC50 for IPTG (log10 µmol/L) (IPTG [1]) | Hill coefficient n (IPTG [2]) | basal output G0 (log10) (IPTG [3]) | saturating output G-infinity (log10) (IPTG [4])
MKPVTLYDVAEYAGVSYQTVSRVVNQASHVSAKTREKVEAAMAELNYIPNRVAQKLAGKQSLLIGVATSSLALHAPSQIVAAIKSRADQLGASVVVSMVERSGVEACKAAVHNLLAQRVSVLIINYPLDDQDAIAVEAACTNVPALFLDVSDQTPINSIIFSHEDGTRLGVEHLVALGHQQIALLAGPLSSVSARLRLAGWHKYLTRNQIQPIAEREGDWSAMSGFQQTMQMLNEGIVPTAMLVANDQMALGAMRAITESGLRVGADISVVGYDDTEDSSCYIPPLTTIKQDFRLLGQTSVDRLLQLSQGQAVKGNQLLPVSLVKRKTTLAPITQTASPRALADSLMQLARQVSRLESGQ [Q55K G121V N333I] | 1.78 ± 0.031 | 1.58 ± 0.092 | 2.37 ± 0.36 | 4.393 ± 0.012
MKPVTLYDVAEYAGVSYQTVSRVVNQASHVSAKTREKVEAAMAELNYIPNRVAQQLAGKQSLLIGVATSSLALHAPSQIVAAIKSRADQLGASLVVSMIERSGIEACKAAVHNLLAQRVSGLIINYPLDDQDAIAVEAACTNVPALFLDVSDQTPINSIIFSHEDGTRLGVEHLVALGHQQIALLAGPLSSVSARLRLAGWHKYLTRNQIQPIAEREGDWSAMSGFQQTMQMLNEGIVPTAMLVANDQMALGAMRAITESGLRVGADISVVGYDDTEDSSCYIPPLTTIKQDFRLLGQTSVDRLLQFSQGQAVKGNQLLPVSLVKRKTTLAPNTQTASPRALADSLMQLARQVSRLESGQ [V94L V99I V104I L307F] | 1.47 ± 0.02 | 1.56 ± 0.1 | 2.75 ± 0.26 | 4.204 ± 0.0067
MKPVTLYDVAEYAGVSYQTVSRVVNQASHVSAKTREKVEAAMAELNYIPNRVAQQLAGKQSLLIGVATSSLALHAPSQIVAAIKSRADQLGASVVVTMVERSGVEACKAAVHNLLAQRVSGLIINYPLDDQDAIAVEAACTNVPALFLDVSDQTPINSIIFSHEDGTRLGVEHLVALGHQQIALLAGPLSSVSARLRLAGWHKYLTRNQIQPIAEREGDWSAMSGFQQTMQMLNEGIVPTAMLVANDQMALGAMRAITESGLRVGADISVVGYDDTEDSSCYIPPLTTIKQDFRLLGQTSVDRLLQLSQGQAVKGNQLLPVSLVKRKTTLAPNTQTASPRALADSLMQLARQVSRLESGQ [S97T] | 1.59 ± 0.023 | 1.58 ± 0.067 | 2.61 ± 0.16 | 4.572 ± 0.01
MKPVTLYDVAEYAGVSYQTVSRVVNQASHVSAKTREKVEAAMAELNYIPNCVAQQLAGKQSLLIGVATSSLALHAPSQIVAAIKSRADQLGASVVVSMVERSGVEACKAAVHNLLAQRVSGLIINYPLDDQDAIAVEAACTNVPALFLDVSDQTPINSIIFSHEDGTRLGVEHLVALGHQQIALLAGPLSSVSARLRLAGWHKYLTRNQIQPIAEREGDWSAMSGFQQTMQMLNEGIVPTAMLVANDQMALGAMRAITESGLRVGADISVVGYDDTEDSSCYIPPLTTIKQDFRLLGQTSVDRLLQLSQGQAVKGNQLLPVSLVKRKTTLAPNTQTASPRALADSLMQLARQVSRLESGQ [R51C] | 0.988 ± 0.036 | 1.44 ± 0.14 | 3.91 ± 0.021 | 4.49 ± 0.0086
MKPVTLYDVAEYAGVSYQTVSRVVNQASHVSAKTREKVEAAMAELNYIPNRVAQQLAGKQSLLIGVATSSLALHAPSQIVAAIKSRADQLGASVVESMVERSGVEACKAAVHNLLAQRVSGLIINYPLDDQDAIAVEAACTNVPALFLDVSDQIPINRIIFSHEDGTRLGVEHLVALGHQQIALLAGPLSSVSARLRLAGWHKYLTRNQIQPIAEREGDWSAMSGFQQTMQMLNEGIDPTAMLVANDQMALGAIRAITESGLRIGADISVVGYDDTEDSSCYIPPLTTIKQDFRLLGQTSVDRLLQLSQGQAVKGNQLLPVSLVKRKTTLAPNTQTASPRALADSLMQLARQVSRLESGQ [V96E T154I S158R V238D M254I V264I] | 2.37 ± 0.029 | 1.37 ± 0.067 | 4.479 ± 0.01 | 3.19 ± 0.03

— the supplement of paper PMC10057847, “Precision engineering of biological function with large-scale measurements and machine learning” (PLOS ONE, 2023)
